Experimental data reported in patent US20050064518A1.

Columns and labels:
monoclonal antibody 4E7 = experiment: ELISA competition: shed CA 125/O772P at 25-fold excess against 4E7 binding to plate-bound O772P 3-repeat
monoclonal antibody 7C6 = experiment: ELISA competition: shed CA 125/O772P at 25-fold excess against 7C6 binding to plate-bound O772P 3-repeat
monoclonal antibody 7H1 = experiment: ELISA competition: shed CA 125/O772P at 25-fold excess against 7H1 binding to plate-bound O772P 3-repeat
monoclonal antibody 8A1 = experiment: ELISA competition: shed CA 125/O772P at 25-fold excess against 8A1 binding to plate-bound O772P 3-repeat
monoclonal antibody 8B5 = experiment: ELISA competition: shed CA 125/O772P at 25-fold excess against 8B5 binding to plate-bound O772P 3-repeat
monoclonal antibody 8C3 = experiment: ELISA competition: shed CA 125/O772P at 25-fold excess against 8C3 binding to plate-bound O772P 3-repeat
monoclonal antibody 8E3 = experiment: ELISA competition: shed CA 125/O772P at 25-fold excess against 8E3 binding to plate-bound O772P 3-repeat
monoclonal antibody 8G9 = experiment: ELISA competition: shed CA 125/O772P at 25-fold excess against 8G9 binding to plate-bound O772P 3-repeat
M11 = experiment: flow cytometry competition (representative plot): shed CA 125/O772P against M11 binding to OVCAR-3 cells
monoclonal antibody 15C9 = experiment: ELISA competition: shed CA 125/O772P at 25-fold excess against 15C9 binding to plate-bound O772P 3-repeat
monoclonal antibody 16C7 = experiment: ELISA competition: shed CA 125/O772P at 25-fold excess against 16C7 binding to plate-bound O772P 3-repeat
monoclonal antibody 16H9 = experiment: ELISA competition: shed CA 125/O772P at 25-fold excess against 16H9 binding to plate-bound O772P 3-repeat
Sequence of monoclonal antibody 16H9 (chain, as listed by the source, chain 1 of 2): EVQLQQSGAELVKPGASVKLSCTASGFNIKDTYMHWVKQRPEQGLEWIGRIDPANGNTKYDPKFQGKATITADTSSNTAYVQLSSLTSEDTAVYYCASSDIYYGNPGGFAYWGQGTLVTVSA
Sequence of monoclonal antibody 16H9 (chain, as listed by the source, chain 2 of 2): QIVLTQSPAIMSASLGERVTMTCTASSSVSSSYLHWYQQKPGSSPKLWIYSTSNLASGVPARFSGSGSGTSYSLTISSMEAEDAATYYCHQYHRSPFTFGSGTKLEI

monoclonal antibody 7A11 = experiment: ELISA competition: shed CA 125/O772P at 25-fold excess against 7A11 binding to plate-bound O772P 3-repeat
monoclonal antibody 7F10 = experiment: ELISA competition: shed CA 125/O772P at 25-fold excess against 7F10 binding to plate-bound O772P 3-repeat
monoclonal antibody 7G10 = experiment: ELISA competition: shed CA 125/O772P at 25-fold excess against 7G10 binding to plate-bound O772P 3-repeat
[1] = molecular target: monoclonal antibody 325.1; experiment: ELISA competition: shed CA 125/O772P at 25-fold excess against 325.1 binding to plate-bound O772P 3-repeat
[2] = molecular target: monoclonal antibody 446.1; experiment: ELISA competition: shed CA 125/O772P at 25-fold excess against 446.1 binding to plate-bound O772P 3-repeat
[3] = molecular target: monoclonal antibody 621.1; experiment: ELISA competition: shed CA 125/O772P at 25-fold excess against 621.1 binding to plate-bound O772P 3-repeat
[4] = molecular target: monoclonal antibody 633.1; experiment: ELISA competition: shed CA 125/O772P at 25-fold excess against 633.1 binding to plate-bound O772P 3-repeat
[5] = molecular target: monoclonal antibody 654.1; experiment: ELISA competition: shed CA 125/O772P at 25-fold excess against 654.1 binding to plate-bound O772P 3-repeat
[6] = molecular target: monoclonal antibody 725.1; experiment: ELISA competition: shed CA 125/O772P at 25-fold excess against 725.1 binding to plate-bound O772P 3-repeat
Sequence of monoclonal antibody 725.1 (chain, as listed by the source, chain 1 of 2): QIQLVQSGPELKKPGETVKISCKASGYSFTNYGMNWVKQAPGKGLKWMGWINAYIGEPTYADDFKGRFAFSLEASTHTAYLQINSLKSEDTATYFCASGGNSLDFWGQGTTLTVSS
Sequence of monoclonal antibody 725.1 (chain, as listed by the source, chain 2 of 2): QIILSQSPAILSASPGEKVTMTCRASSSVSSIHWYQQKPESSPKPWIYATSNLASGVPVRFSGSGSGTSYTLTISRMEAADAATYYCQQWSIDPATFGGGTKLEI

[7] = molecular target: monoclonal antibody 117.1; experiment: flow cytometry competition (representative plot): shed CA 125/O772P against 117.1 binding to OVCAR-3 cells
Sequence of monoclonal antibody 117.1 (chain, as listed by the source, chain 1 of 2): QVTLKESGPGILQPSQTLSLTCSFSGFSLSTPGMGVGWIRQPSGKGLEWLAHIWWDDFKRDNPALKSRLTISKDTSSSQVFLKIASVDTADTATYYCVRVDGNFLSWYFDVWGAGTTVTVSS
Sequence of monoclonal antibody 117.1 (chain, as listed by the source, chain 2 of 2): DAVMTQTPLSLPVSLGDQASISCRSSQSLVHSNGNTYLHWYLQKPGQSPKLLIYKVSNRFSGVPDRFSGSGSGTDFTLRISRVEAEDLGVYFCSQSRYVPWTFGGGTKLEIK

OC125 = experiment: ELISA competition: shed CA 125/O772P at 25-fold w/w excess against antibody binding to plate-bound O772P 3-repeat
Sequence of OC125 (chain, as listed by the source, chain 1 of 2): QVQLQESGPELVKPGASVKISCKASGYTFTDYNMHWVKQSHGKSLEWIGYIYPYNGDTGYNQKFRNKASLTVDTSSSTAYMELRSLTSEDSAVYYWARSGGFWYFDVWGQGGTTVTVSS
Sequence of OC125 (chain, as listed by the source, chain 2 of 2): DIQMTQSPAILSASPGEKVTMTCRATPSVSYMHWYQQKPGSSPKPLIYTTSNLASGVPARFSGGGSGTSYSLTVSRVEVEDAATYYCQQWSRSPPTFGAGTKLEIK

[8] = molecular target: monoclonal antibody 117.1; experiment: as above
[9] = molecular target: monoclonal antibody 368.1; experiment: as above
Sequence of monoclonal antibody 368.1 (chain, as listed by the source, chain 1 of 2): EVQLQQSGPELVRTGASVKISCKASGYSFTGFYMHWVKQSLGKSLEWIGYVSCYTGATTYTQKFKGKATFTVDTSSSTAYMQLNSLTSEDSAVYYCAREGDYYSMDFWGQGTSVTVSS
Sequence of monoclonal antibody 368.1 (chain, as listed by the source, chain 2 of 2): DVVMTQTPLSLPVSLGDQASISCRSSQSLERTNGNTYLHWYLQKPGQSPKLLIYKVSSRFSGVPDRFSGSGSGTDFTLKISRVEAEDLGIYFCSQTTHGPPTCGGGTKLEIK

[10] = molecular target: monoclonal antibody 501.1; experiment: as above
Sequence of monoclonal antibody 501.1 (chain, as listed by the source, chain 1 of 2): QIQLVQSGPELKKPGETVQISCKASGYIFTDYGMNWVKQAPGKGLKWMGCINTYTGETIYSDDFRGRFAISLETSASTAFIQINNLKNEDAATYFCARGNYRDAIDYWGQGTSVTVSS
Sequence of monoclonal antibody 501.1 (chain, as listed by the source, chain 2 of 2): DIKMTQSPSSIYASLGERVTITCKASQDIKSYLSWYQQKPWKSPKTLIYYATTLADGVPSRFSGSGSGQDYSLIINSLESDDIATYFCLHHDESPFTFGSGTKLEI

[11] = molecular target: monoclonal antibody 776.1; experiment: as above
Sequence of monoclonal antibody 776.1 (chain, as listed by the source, chain 1 of 2): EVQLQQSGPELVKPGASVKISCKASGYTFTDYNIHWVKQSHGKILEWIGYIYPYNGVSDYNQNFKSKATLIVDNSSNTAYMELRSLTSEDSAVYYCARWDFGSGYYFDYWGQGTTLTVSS
Sequence of monoclonal antibody 776.1 (chain, as listed by the source, chain 2 of 2): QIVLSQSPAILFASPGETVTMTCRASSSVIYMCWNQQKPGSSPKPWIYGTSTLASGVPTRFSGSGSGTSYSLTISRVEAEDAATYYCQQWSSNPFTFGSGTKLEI

“shed CA 125/O772P polypeptide, Q8WXI7 1-14401” was tested, and the % inh. binding (monoclonal antibody 4E7) was 7%, the % inh. binding (monoclonal antibody 7C6) was 2% and the % inh. binding (monoclonal antibody 7H1) was 4%. For the same substance, the % inh. binding (monoclonal antibody 8A1) was 8%, the % inh. binding (monoclonal antibody 8B5) was 6% and the % inh. binding (monoclonal antibody 8C3) was 5%. For the same substance, the % inh. binding (monoclonal antibody 8E3) was 4%, the % inh. binding (monoclonal antibody 8G9) was 7% and the IC50 (M11) was 3 µg/mL. For the same substance, the % inh. binding (monoclonal antibody 15C9) was 5%, the % inh. binding (monoclonal antibody 16C7) was 3% and the % inh. binding (monoclonal antibody 16H9) was 0%. The % inh. binding (monoclonal antibody 7A11) was 5%, the % inh. binding (monoclonal antibody 7F10) was 6% and the % inh. binding (monoclonal antibody 7G10) was 3%. It also gave a % inh. binding [1] of 2%, a % inh. binding [2] of 7% and a % inh. binding [3] of 2%. The % inh. binding [4] was 7%, the % inh. binding [5] was 9% and the % inh. binding [6] was 7%. The IC50 [7] was over 1000 µg/mL, the percent inhibition of binding (OC125) was 95% and the percent inhibition of binding [8] was 11%. It also gave a percent inhibition of binding [9] of 0%, a percent inhibition of binding [10] of 15% and a percent inhibition of binding [11] of 17%.
